# From publication PMC7513463 (Nature, 2020)
# Like-named read-outs stand apart in the source and are kept apart here.
# B1: PA0615 collar protein of pyocin R2 (natural protein, Pseudomonas aeruginosa PAO1, UniProt G3XD82 1-171, looked up)
# chain: MPEQAVTLEALYAAIEQVLRERLPEAQLIGFWPGVPENTPAVSLEIAELLPERDPGTGESALLCRLQARIMVPPGADRQAVSIACGIVRTLREQTWNLSLQPARFVRSAVDGSREELKSLRVWLVEWTQSLRLGDPEWAWEDQPPGSLMLGFDPQTGPGHEPDYFAPEALA
# B2: PA0626 ripcord protein of pyocin R2 (natural protein, Pseudomonas aeruginosa PAO1, UniProt G3XD65 1-290, looked up)
# chain: MAYLEQLQAGLRYLGRAGESGRKSLDKVVAPVNGAISEIRGAAAELENLPGVSPEMAARLQRAMRGIGQAQGKVNRVVSTYDRASRALLGIDERLDALKVQVNSAAQAVGKVAGDISPTLAGVLPSWLLAPSATPPSEAAASLPHLLVLQPLTANAQPFYFNLNTAAFDALQRNSAYNWSGQVRLGRRPALQSVGMGEESILLKGAVFPLRRQVGNQEKVVGLEQLEALRRLAERREPLILSSGYGEVQMGLWCLVRISENQSALLGNGAPRKQTFDLEFKRYGDDLPNR
# B3: PA0628 hub protein of pyocin R2 (natural protein, Pseudomonas aeruginosa PAO1, UniProt G3XCU8 1-329, looked up)
# chain: MQPSFRIVADGTDVTQRLNDRLLKLTLLDKPGMESDSLTLRIDDRDGQVALPRRGAVLEVHLGYAGEPLMRMGRFTVDTLQWAGPPDCLTVTAKAGDMRGSGKTIRSGGWEGTTLAQVCRDVGARNGWRVECPLQVAIARVDQVNESDYHFVTRLARQYDCTAKLAEGMLMVLPRQSGQSATGRRIEPLVLGRADVGSFDVTFDDRSLMRTVKTRYQLPGSGEVKSVELKNPKAPATAMGEHVDRHLYTSRGEAEQAAKARLASFSRSSASVRLELPGRGDLFAERSLLLQGFKAGIDGEFLIDSVEHTYSSSGWTTVVQCNGGRGGKG
# B4: PA0616 central spike protein of pyocin R2 (in the native particle) (natural protein)
# chain: MSYVSAEHDRMLAAMILPCVVVAVDLAAARVRVRSGDWTSGWLRWHSLAAGKVRHWRAPSIGEQGVLLSPSGGVSMGTFIPGLYGDAGTAPDNSASSETWRFDDGASLSYDWAAHRYRVELPSGTVEVRVGASEVRVSDGAVSLKAPKISLEGPVEIAGTLTVSGDILGGGSIIDTAGNSNHHTH
# B5: PA0618 (Tri1) triplex protein of pyocin R2 (natural protein, Pseudomonas aeruginosa PAO1, UniProt G3XCX5 1-295, looked up)
# chain: MIIDLSQLPEPEVIENLDFETIYQELLGDFREAMAGEWTAEVESDPVLKLLQLAAYRELLLRARINDAARAVMLAYASGADLDQIGAGFNVQRLLIRPAQPEAVPPVEAQYESDKSLRNRIQLAFEQLSVAGPRNAYIAHALGADGRVADASATSPAPCEVLISVLGVEGNGQAPEAVLQAVRLALNAEDVRPVADRVTVRSAGIVPYQVKAQLYLFPGPEAELIRAAAEASLRDYISAQRRLGRDIRRSALFATLHVEGVQRVELQEPAADVVLDETQAAYCTGYAITLGGVDE
# B6: PA0619 (Tri2) triplex protein of pyocin R2 (natural protein, Pseudomonas aeruginosa PAO1, UniProt G3XD92 1-177, looked up)
# chain: MSSRLLPPNRSSLERSLGDVLPAELPVPLRELHDPARCEAALLPYLAWTRSVDRWDPDWSDEAKRNAVATSFVLHQRKGTLTALRQVVEPIGALSEVTEWWQRSPTGVPGTFEITVDVSDRGIDEGTVLELERLLDDVRPVSRHLTRLDLRITPVIRSRHGLAVTDGDTLEIFPWKQ
# B7: PA0622 sheath protein of pyocin R2 (natural protein, Pseudomonas aeruginosa PAO1, UniProt G3XD39 1-386, looked up)
# chain: MSFFHGVTVTNVDIGARTIALPASSVIGLCDVFTPGAQASAKPNVPVLLTSKKDAAAAFGIGSSIYLACEAIYNRAQAVIVAVGVETAETPEAQASAVIGGISAAGERTGLQALLDGKSRFNAQPRLLVAPGHSAQQAVATAMDGLAEKLRAIAILDGPNSTDEAAVAYAKNFGSKRLFMVDPGVQVWDSATNAARNAPASAYAAGLFAWTDAEYGFWSSPSNKEIKGVTGTSRPVEFLDGDETCRANLLNNANIATIIRDDGYRLWGNRTLSSDSKWAFVTRVRTMDLVMDAILAGHKWAVDRGITKTYVKDVTEGLRAFMRDLKNQGAVINFEVYADPDLNSASQLAQGKVYWNIRFTDVPPAENPNFRVEVTDQWLTEVLDVA
# B8: PA0616 central spike protein, full length, recombinant (natural protein)
# chain: B4 chain
# B9: PA0623 tube protein of pyocin R2 (natural protein, Pseudomonas aeruginosa PAO1, UniProt Q9I5S9 1-167, looked up)
# chain: MIPQTLTNTNLFIDGVSFAGDVPSLTLPKLAVKTEQYRAGGMDAPVSIDMGLEAMEAKFSTNGARREALNFFGLADQSAFNGVFRGSFKGQKGASVPVVATLRGLLKEVDPGDWKAGEKAEFKYAVAVSYYKLEVDGREVYEIDPVNGVRAINGVDQLAGMRNDLGL
# B10: PA0617 sheath initiator protein of pyocin R2 (natural protein, Pseudomonas aeruginosa PAO1, UniProt G3XD42 1-108, looked up)
# chain: MIGMDRRSGLPLSGLAHLKQSVEDILTTPLGSRRMRPEYGSKLRRMVDMPVSEGWKSAVQAEVARSLGRWEPRIGLSAVRVVAVVDGRVDLLLSGVFEGENINMEVSA
# How the values were obtained:
# [1] = biological target: B7; assay: cryo-EM structure
# cryo-EM structure [2] = biological target: the molecule itself; assay: cryo-EM structure
# [3] = biological target: B3; assay: cryo-EM structure
# [4] = biological target: B6; assay: cryo-EM structure
# [5] = biological target: B5; assay: cryo-EM structure
# cryo-EM structure [6] = biological target: the molecule itself; assay: cryo-EM structure; remark: listed apart in the source
# crystal structure = biological target: the molecule itself; assay: crystal structure
# [7] = biological target: B7; assay: cryo-EM structure; remark: listed apart in the source
binder,measurement,setting,value
B1,binding result,[1],binds
same,stoichiometry N,cryo-EM structure [2],6
B2,stoichiometry N,cryo-EM structure [2],6
same,binding result,[3],binds
B3,stoichiometry N,cryo-EM structure [2],3
B4,stoichiometry N,cryo-EM structure [2],3
B5,stoichiometry N,[4],2 PA0618 per PA0619
same,stoichiometry N,cryo-EM structure [2],2
B6,binding result,[5],binds
B7,binding result,cryo-EM structure [6],binds
B8,stoichiometry N,crystal structure,3
B9,stoichiometry N,cryo-EM structure [2],6
B10,binding result,[7],binds
